Measured values: article PMC3926959

Target: T1, Ndc1-mTurquoise2 (S. cerevisiae), P32500
T1 chain: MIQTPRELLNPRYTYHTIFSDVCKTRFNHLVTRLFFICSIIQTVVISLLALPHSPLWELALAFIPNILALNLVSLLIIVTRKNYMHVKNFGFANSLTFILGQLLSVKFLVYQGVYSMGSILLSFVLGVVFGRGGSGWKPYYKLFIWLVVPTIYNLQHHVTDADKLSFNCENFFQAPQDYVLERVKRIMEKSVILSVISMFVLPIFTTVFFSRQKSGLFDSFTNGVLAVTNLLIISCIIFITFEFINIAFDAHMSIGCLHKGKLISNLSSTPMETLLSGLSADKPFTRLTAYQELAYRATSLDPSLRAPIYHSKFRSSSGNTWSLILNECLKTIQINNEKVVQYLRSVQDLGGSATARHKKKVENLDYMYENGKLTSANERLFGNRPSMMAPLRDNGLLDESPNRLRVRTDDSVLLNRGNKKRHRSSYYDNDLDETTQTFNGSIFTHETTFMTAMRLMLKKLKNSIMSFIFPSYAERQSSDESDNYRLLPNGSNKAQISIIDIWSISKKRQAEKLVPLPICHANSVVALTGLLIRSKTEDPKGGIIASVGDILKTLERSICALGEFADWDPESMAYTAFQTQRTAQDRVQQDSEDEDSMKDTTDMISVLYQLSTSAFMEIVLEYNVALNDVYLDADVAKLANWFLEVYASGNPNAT
Experiment: line-scanning fluorescence cross-correlation spectroscopy
Conditions: remark: other sources report otherwise

percent of Ndc1-mTurquoise2 in a complex (FCCS): 2%
B1: Mps3-YFP, P47069 1-682 (natural protein)
chain: MNNSNEHRREEAGAANEQMPYNKAVKSAYADVLKDKMNREQEISLRAIKKGIYTDGGETDNYDMDKENDSAYEMFKKNLDFPLDQHNDDDDDDPYIEDNGQETDGYSDEDYTDEADKSFIEDSDSDSYDLESNSDFEENLESSGEAKKLKWRTYIFYGGLFFVFYFFGSFLMTTVKNNDLESHSSGATSSPGKSFSNLQKQVNHLYSELSKRDEKHSSELDKTVKIIVSQFEKNIKRLLPSNLVNFENDINSLTKQVETISTSMSELQRRNHKFTVENVTQWQDQLVKQLDTHLPQEIPVVINNSSSLLIIPELHNYLSALISDVIESPGIGTAGSAESRWEYDLNRYVKEILSNELQYIDKDYFIQEMNRRLQSNKQEIWEEITNRLETQQQQQQQQVQQDYSNVPQQYSSILMKRLIHQIYNSNQHQWEDDLDFATYVQGTKLLNHLTSPTWRQGSGVQPIELLTDSKQSSSTYWQCENEPGCSWAIRFKTPLYLTKISYMHGRFTNNLHIMNSAPRLISLYVKLSQTKEIKALQTLANQYGFGQHHKRDRNYIKIAKFEYRLTDSRIRQQMYLPPWFIQLKPLVRSIVFQVDENYGNKKFISLRKFIINGVTPQDLQIIENNEFPVLLGDTPEYGVTQNTDEGKRKVLLSKPPYASSSTSTKFHPASNVPSFGQDELDQ
